Like-named read-outs stand apart in the source and are kept apart here.
Tests used:
SEC [1] = biological target: the molecule itself; test: SEC
SEC [2] = biological target: the molecule itself; test: SEC; remark: listed apart in the source

Row | Protein | stoichiometry N (SEC [1]) | stoichiometry N (SEC [2])
1 | Human Prx2, native, reduced (thiol cysteines) (enzyme, UniProt P32119 1-198, looked up, cysteines reduced (thiol)) MASGNARIGKPAPDFKATAVVDGAFKEVKLSDYKGKYVVLFFYPLDFTFVCPTEIIAFSNRAEDFRKLGCEVLGVSVDSQFTHLAWINTPRKEGGLGPLNIPLLADVTRRLSEDYGVLKTDEGIAYRGLFIIDGKGVLRQITVNDLPVGRSVDEALRLVQAFQYTDEHGEVCPAGWKPGSDTIKPNVDDSKEYFSKHN | 10 | 
2 | Human Prx2, overoxidized (enzyme, UniProt P32119 1-198, looked up, overoxidized (so in the source)) MASGNARIGKPAPDFKATAVVDGAFKEVKLSDYKGKYVVLFFYPLDFTFVCPTEIIAFSNRAEDFRKLGCEVLGVSVDSQFTHLAWINTPRKEGGLGPLNIPLLADVTRRLSEDYGVLKTDEGIAYRGLFIIDGKGVLRQITVNDLPVGRSVDEALRLVQAFQYTDEHGEVCPAGWKPGSDTIKPNVDDSKEYFSKHN |  | 10
